Test results: article PMC314469, “Protein Interaction Networks by Proteome Peptide Scanning” (PLoS Biology, 2004)

T1: Boi1 SH3 (BOI1_YEAST), P38041
T1 chain: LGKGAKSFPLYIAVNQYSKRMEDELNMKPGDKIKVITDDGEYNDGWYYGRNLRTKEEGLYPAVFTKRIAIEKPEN

T2: Yhr016c SH3 (YSC84_YEAST), P32793
T2 chain: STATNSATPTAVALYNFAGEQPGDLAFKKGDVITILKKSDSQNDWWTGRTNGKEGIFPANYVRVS

T3: Yfr024 SH3 (LSB3_YEAST), P43603
T3 chain: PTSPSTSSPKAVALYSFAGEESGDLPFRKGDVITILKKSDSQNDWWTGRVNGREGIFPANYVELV

T4: Rvs167 SH3 (RV167_YEAST), P39743
T4 chain: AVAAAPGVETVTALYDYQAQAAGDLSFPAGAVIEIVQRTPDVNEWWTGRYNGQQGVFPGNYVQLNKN

T5: Boi2 SH3 (BOI2_YEAST), P39969
T5 chain: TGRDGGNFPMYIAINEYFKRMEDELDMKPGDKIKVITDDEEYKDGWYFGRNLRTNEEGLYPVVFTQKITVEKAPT


Biological target: T1, Boi1 SH3 (BOI1_YEAST), P38041
Assay: SPOT array

normalised SPOT signal, Boehringer light units (BLU); mean over the file's lines of this peptide	Binder
5300	NSMPNVPVRLKLHT [YKL208W 152-165]
1070	NWSPNIPLRYSDFA [YOL017W 129-142]
899	NVQPRKPSRVHSRN [YFR022W 634-647]
43.4	NSPPTTPSKDESGP [YMR190C 45-58]
72.9	NVDPASPWRHELLS [YGL107C 76-89]
3860	NYAPRLPRRETSSS [YIL061C 231-244]
7150	NSRPQQPERRRFNS [YOR042W 296-309]

The remaining lines, values behind:

Binder	normalised SPOT signal, Boehringer light units (BLU); mean over the file's lines of this peptide
PASPTPPYRSRETE [YLR457C 288-301]	51.2
PFIPKFPSRESVES [YBR036C 302-315]	39.7
NSPPVYPKRIRHFE [YDR061W 22-35]	8630
NTVPSTPSRSNSVL [YKL038W 137-150]	45.3
PFLPVLPQKPGGVR [YDR178W 35-48]	49.9
PAFPEYPMRRDTLY [YMR058W 448-461]	3190
NYQPKPPIREGNGP [YLR213C 97-110]	43.5
NSNPIDPLRSDRSV [YNL144C 502-515]	274
PFLPKIPQKPGGVS [YLR164W 27-40]	80.5
NYIPPDPPKDIQLN [YBR216C 239-252]	182

Biological target: T2, Yhr016c SH3 (YSC84_YEAST), P32793
Assay: SPOT array

normalised SPOT signal, Boehringer light units (BLU); mean over the file's lines of this peptide	Binder
11000	NSMPNVPVRLKLHT [YKL208W 152-165]
1410	NWSPNIPLRYSDFA [YOL017W 129-142]
5260	NVQPRKPSRVHSRN [YFR022W 634-647]
293	NSPPTTPSKDESGP [YMR190C 45-58]
271	NVDPASPWRHELLS [YGL107C 76-89]
50300	NYAPRLPRRETSSS [YIL061C 231-244]
14500	NSRPQQPERRRFNS [YOR042W 296-309]

Continued, binder first:

Binder	normalised SPOT signal, Boehringer light units (BLU); mean over the file's lines of this peptide
PASPTPPYRSRETE [YLR457C 288-301]	729
PFIPKFPSRESVES [YBR036C 302-315]	1410
NSPPVYPKRIRHFE [YDR061W 22-35]	22100
NTVPSTPSRSNSVL [YKL038W 137-150]	9290
PFLPVLPQKPGGVR [YDR178W 35-48]	338
PAFPEYPMRRDTLY [YMR058W 448-461]	1930
NYQPKPPIREGNGP [YLR213C 97-110]	156
NSNPIDPLRSDRSV [YNL144C 502-515]	67.7
PFLPKIPQKPGGVS [YLR164W 27-40]	173
NYIPPDPPKDIQLN [YBR216C 239-252]	79.4

Biological target: T3, Yfr024 SH3 (LSB3_YEAST), P43603
Assay: SPOT array

normalised SPOT signal, Boehringer light units (BLU); mean over the file's lines of this peptide	Binder
20400	NSMPNVPVRLKLHT [YKL208W 152-165]
3720	NWSPNIPLRYSDFA [YOL017W 129-142]
19900	NVQPRKPSRVHSRN [YFR022W 634-647]
101	NSPPTTPSKDESGP [YMR190C 45-58]
63	NVDPASPWRHELLS [YGL107C 76-89]
29100	NYAPRLPRRETSSS [YIL061C 231-244]
40900	NSRPQQPERRRFNS [YOR042W 296-309]

More lines, now with the values behind:

Binder	normalised SPOT signal, Boehringer light units (BLU); mean over the file's lines of this peptide
PASPTPPYRSRETE [YLR457C 288-301]	933
PFIPKFPSRESVES [YBR036C 302-315]	2600
NSPPVYPKRIRHFE [YDR061W 22-35]	23100
NTVPSTPSRSNSVL [YKL038W 137-150]	26300
PFLPVLPQKPGGVR [YDR178W 35-48]	12700
PAFPEYPMRRDTLY [YMR058W 448-461]	5040
NYQPKPPIREGNGP [YLR213C 97-110]	114
NSNPIDPLRSDRSV [YNL144C 502-515]	301
PFLPKIPQKPGGVS [YLR164W 27-40]	2200
NYIPPDPPKDIQLN [YBR216C 239-252]	254

Biological target: T4, Rvs167 SH3 (RV167_YEAST), P39743
Assay: SPOT array

normalised SPOT signal, Boehringer light units (BLU); mean over the file's lines of this peptide	Binder
2480	NSMPNVPVRLKLHT [YKL208W 152-165]
189	NWSPNIPLRYSDFA [YOL017W 129-142]
1900	NVQPRKPSRVHSRN [YFR022W 634-647]
40.1	NSPPTTPSKDESGP [YMR190C 45-58]
33.4	NVDPASPWRHELLS [YGL107C 76-89]
28000	NYAPRLPRRETSSS [YIL061C 231-244]
3880	NSRPQQPERRRFNS [YOR042W 296-309]

Continued, binder first:

Binder	normalised SPOT signal, Boehringer light units (BLU); mean over the file's lines of this peptide
PASPTPPYRSRETE [YLR457C 288-301]	13.1
PFIPKFPSRESVES [YBR036C 302-315]	506
NSPPVYPKRIRHFE [YDR061W 22-35]	3590
NTVPSTPSRSNSVL [YKL038W 137-150]	387
PFLPVLPQKPGGVR [YDR178W 35-48]	20
PAFPEYPMRRDTLY [YMR058W 448-461]	57.6
NYQPKPPIREGNGP [YLR213C 97-110]	79.4
NSNPIDPLRSDRSV [YNL144C 502-515]	22.8
PFLPKIPQKPGGVS [YLR164W 27-40]	50.1
NYIPPDPPKDIQLN [YBR216C 239-252]	176

Biological target: T5, Boi2 SH3 (BOI2_YEAST), P39969
Assay: SPOT array

normalised SPOT signal, Boehringer light units (BLU); mean over the file's lines of this peptide	Binder
2750	NSMPNVPVRLKLHT [YKL208W 152-165]
574	NWSPNIPLRYSDFA [YOL017W 129-142]
1310	NVQPRKPSRVHSRN [YFR022W 634-647]
29.9	NSPPTTPSKDESGP [YMR190C 45-58]
8.5	NVDPASPWRHELLS [YGL107C 76-89]
4640	NYAPRLPRRETSSS [YIL061C 231-244]
2470	NSRPQQPERRRFNS [YOR042W 296-309]

Further lines, the binder ahead of its results:

Binder	normalised SPOT signal, Boehringer light units (BLU); mean over the file's lines of this peptide
PASPTPPYRSRETE [YLR457C 288-301]	31
PFIPKFPSRESVES [YBR036C 302-315]	70.4
NSPPVYPKRIRHFE [YDR061W 22-35]	3110
NTVPSTPSRSNSVL [YKL038W 137-150]	46.6
PFLPVLPQKPGGVR [YDR178W 35-48]	35.7
PAFPEYPMRRDTLY [YMR058W 448-461]	82.5
NYQPKPPIREGNGP [YLR213C 97-110]	53.8
NSNPIDPLRSDRSV [YNL144C 502-515]	45.3
PFLPKIPQKPGGVS [YLR164W 27-40]	45.9
NYIPPDPPKDIQLN [YBR216C 239-252]	40.9
